Experimental data published in the nanobody polyreactivity screen of Harvey et al. (2022).

experiment: yeast display, Sf9 membrane polyspecificity reagent, FACS + sequencing; frameworks hold sequencing errors
Summary of the method: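 Galactose induction of a Saccharomyces cerevisiae BJ5465 synthetic nanobody display library ran 36–48 hours. The cells were then stained for 1 hour at 4 °C with 10% biotinylated, detergent-solubilized Sf9 membrane reagent, pulled down on streptavidin microbeads and FACS-sorted into low and high (top ~1%) gates on expression and reagent-binding fluorescence. Labels for polyreactivity follow the gate of origin.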

Sequence	polyreactivity (PSR sort gate)
QVQLVESGGGLVQAGGSLRLSCAASGFISRAYAMGWYRQAPGKERELVAAISVRVGSTYYADSVKGRFTISRDNAKNTVYLQMNSLKPEDTAVYYCAALRPWPRYDYWGQGTQVTVSS	high polyreactivity
QVQLVESGGGLVQAGGSLRLSCAASGGTFQRYVMGWYIQAPGKERELVAAISRSGSTYADSVKGRFTISRDNAKNTVYLQMNSLKPEDTAFYYCNVVRYYRYYLHGYDYWGQGTQVTVSS	high polyreactivity
QVQLVESGGGLVQAGGSLRLSCAASGSIFYENTMGWYRQAPGKERELVASISGGGSTYADSVKGRFTISRDNAKHTVYLQMNSLKPEDTAVYYCNADSSTEYDYWGQGTQVTVSA	low polyreactivity
QFQLVESGGGLVQAGGSLRLSCAASGRTFGRYTMGWYRPAPGKEREFVARINWNGGGTYYEDSVKGRFTISRDNAKNTVYLQMNSLKPEDTEVYYCNARKRGARFILGYDYSGQGTQVTVSS	low polyreactivity
QVQLVESGGGLVQAGGSLRLSCAASGSTFGYYAMGWYRQAPGKERELVAAISDGGSTYYADSVKGRFTISRDNAKNTVYLQMNSLKPEDTAVYYCAAEYLAYDWYEYYYWGQGTQVTVSS	high polyreactivity
QVQLVESGGGLVQAGGSLRLSCAASGSIFYPNAMGWYRQAPGKESELVAAISSSGGTNYADSVKGRFTISRDNAKNTVYLQMNSLKPEDTAVYYCAADIRSNRLYDGGYWGQGTQVTVSS	low polyreactivity
QVQLVESGGGLVQAGGSLRLSCAASGSIFDNYAMGWYRPAPGKERELVAAITSGGSTYYADSVKGRFTISRDNAKNTVYLQMNSLKPEDTAVYYCAKDYKSIDDYWGQGTQVTVSS	low polyreactivity
QVQLVESGGGIVQAGGSLRLSCAASGSIFDYYTKAWYRQAPGKEREMVAAISWSGGSTYYADSVKGRFTISRDNAKNTVYLQMYSLKPEDTAVYYCATRVRTRTGYQYYYWGQGTQVTVSS	high polyreactivity
QVQLVESGGGLVQEGGSLRLSCAASGFTIRTYAMGWYRQAPGKERELVAAINTGGGTNYADSVKGRFTISRDNAKNTVYLQMNSLKPEDTAVYYCNSVHYYYYYWYSLYDSWGKGTQVTVSS	high polyreactivity
QVHLVESGGGLVQAGGSLRLICAATGFIFGSYAMGWYRQAPGKERELVAAINWSGGNTYYADSVKGRFTISRDNEKNTVYLQMNSLKPEDTAVYYCAAQYVTSRFDYWGQGTQVTVSS	high polyreactivity
QVQLVESGGGLVQAGGSLRLSCAASGSTFHWYVMGWYRQAPAKERELVAAITWSGGSTYYADSVKGRFTISRDNAKNTVYLQMNSLKPEDTAVYYCNAVFWIWNAGYDYWGQGTQVTVSS	low polyreactivity
QVQLVESGGGLVQAGGSLRLSCAASGYTFQYNSMGWYRQAHGKERELVATISNRGTSTYYADSVKGRFTISRDNAKKTVYLQMNSLKPEDTAVYYCAKSRWSLYSSGVWSRRHFYYWGHGTQVTVSS	high polyreactivity
QVQLVESGGGLVQAGGSLRLSCAASGSIYAVYAMGWYRPAPGKERELVATISGRGGSTYYADSVKGRFTISRDNAKNTVYLQMNSLKPEDTAVYYCNARVLFRRERMDSWGQGTQVTVSS	high polyreactivity
QVQLVESGGGLVQAGGSLRLSCAASGSTFESNTMGWYSQAPGKERELVAAISYSGGRTYYADSVKGRFTISRDNAKNTVYLQMNSLKPEDTAVYYCAARWSVSYQYWGQGTQVTVSS	high polyreactivity
QVQLVESGGGLVQAGGSLRLSCAASGITFSYYAMGWYRQAPGKERELVAAISGSGTSTYYADSVKGRFTISRDNAKNTVYFQMNSLKPEDTAVYYCAAGPPRKPGYYYWGQGTQVTVSS	high polyreactivity
QVQLVESGGGLVQAGGSLPLSCAASGSIFTYYAMGSYRQAPGKEREFVAAISRRGGSTYYADSVKGRFTISRDNAKNTVYLQMNSLKPEDTAVYYCNARDTGSSLYYWGQGTQVTVSS	high polyreactivity
QVQLVESGGGLVQAGGSLRLSCAASGIIFDPYAMGWYRQAPGKERELVADIDNASSTYYADSVKGRFTISRDNAKNTVYLQMNSLKPEDTAVYYCAADLWYGGEYWGQGTQVTVSS	low polyreactivity
QVQLVESAGGLVQAGGSLRLSCAASGRTIRWYTMGWYRQAPGKERELVAGISSSGGSTYYADSVKGRFTISRDTAKNTVYLQMNSLKPEDTAVYYCNVVTWYYVFRPWEYDYWGQGTQVTVSS	low polyreactivity
QVQLVESGGGLVQAGGSLRLSCAASGNTFPINAMGWYRQAPGKERELVATITRPGGSTYYADSVKARFTISRDNAKNTVYLQMNSLKPEDTAVYYCAAANYTYASRWYDYWGQGTQVTVSS	low polyreactivity
QVQLVESGGGLVQAGGSLRLSCAASGRIFGPYTMGWYRPAPGKERELVARISRRGGSTYYADSVKGRFTISRDNAKNTVYLQMNSLKPEDTAVYYCAAWFTSTRPYDYWGQGTQVTVSS	high polyreactivity
QVQLVESGGGLVQAGGSLRLSCAASGSIINIYAMGWYRQAPGKERELVATITGIADSTYYADSVKGRFTISRDNAQNSVYLQMNSLKPEETAVYFCAADKYVAEYDYWGQGSQVTVSS	low polyreactivity

Sequence	polyreactivity (PSR sort gate)
QVQLVESGGGLVQAGGSLRLSCAASGFIFTKYTMGWYRQAPGKERELVAAITGRGTSTYADSVKGRFTISRDNAKNTVYLQMNSLKPEDTAVYYCAAVGWFADFLFSDINGYYWGQGTQVTVSS	low polyreactivity
QVQLVESGGGLVQAGGSLRLSCAASGIIFEFYAMGWYRQAPGKEREFVAAISKNGGRTYYADSVKGRFTISRDNAKTSVYLQLNSLKPEDTAVYYCDARYRPQANKYYYWGQGTQVTVSS	high polyreactivity
QVQLQESGSGLVQAGGSLRLSCAASGNISHYNDMGWYRQAPGKEREPVATINSGSITYYADSVKGRFTISRDNAKYTVYLQMNSLKPEDTAVYYCAVKQHGYFYLDYWGQGTQVTVSS	high polyreactivity
QVQLVESGGGLVQAGGSLRLSCAASGSTFSVNAMGRYRQATGKERELVATISGGITNYADSVKGRFTISRDNAKNTVYLQMNSLKPEDTAVYYCNTAYRHIWVTWAAYDYWGQGTQVTVSS	low polyreactivity
QVQLVESGGGLVQAGGSLRLSCAASGSTFDQNGMGWYRQAPGKERELVATISTSAGTYYADSVKGRFTISRDNAKNTVYLQMNSLKPEDTAVYYCNADLGGQYKEFDYWGQGTQVTVSS	low polyreactivity
QVQLVESGGGLVQAGGSLRLSCAASGLTFASYAMGWYRQAPGKERELVAVISASGGSTYYADSVKGRFTISRDNAKNPVYLQMNSLKPEDTAVYYCAARHSLYGYWGQGTLVTVSS	high polyreactivity
QVQLVESGGGLVQAGGSLRLSCAASGFTFDAYDMGWYRQAPGKERELVAAISWRGIDTTYADSVKGRFTISRDNAKNTVYLQMNSLKPEDTAVYYCAEFVSDATVGPSKGLDYWGQGTQVTVSS	low polyreactivity
QVQLVESGGGLVQAGGSLRLSCAASGGTFRDYAMGWYRQAPGKERELVASISWTVGGTYADSVKGRFSISRDNAKNTVYLQMNSLKPEDTAVYYCAADYSPSTWYLYYTLYYYWGQGTQVTVSS	low polyreactivity
QLQLVESGGGLVQAGGSLRLSCAASGFTFSYYAKGWYRQAPGKERELVAAISINGGRTYYADSVKGRFTISRDNAKNTVYLQMNSLKPEDTAVYYCNAVSYAYTVRMDYWGQGTQVTVSS	high polyreactivity
QVQLVESGGGLVQAGGSLRLSCAASGFTFKFNTMGWYRQAPGKERELVAAISWRGGDTSYADSVKGRFTISRDNAKNNVYLQMNSLKPEDTAVYYCAASPRYPYWYDYWGQGTQVTVSS	low polyreactivity
QVQLVESGVGLVQAGGSLRLSCAASGRIFTGYAMGWYRQAPGKERELVAAITSSGDGTNYADSVKGRFTISRDNAKNTVYLQMNSLKPEDTAVYYCNADGSYKMDWGQGTQVTVSS	low polyreactivity
QVQLVESGGGLVQAGGSLRLSCAASGSTFLAYTMGWYRQAPEKERELVADNTSNGGSTYYADSVKGRFTISRDNAKNTVYLQMNSLKPEDTAVYYCNTGSGAGITRPDDDFNYWGQGTQVTVSS	low polyreactivity
QVQLVESGGGLVQAGGSLRLSCAASGSTFDYYVMGWYRQAPGKERELVAAISHNAGSTYYADSVKGRFTISRDNAKNTVYLQMNSLKPEDTAVYYCAAPDYRNGVRYPLDYWGQGTQVTVSS	low polyreactivity
QVQLVESGGGLVQAGGSLRLSCAASGSTFVTYAMGWYRQAPGKERELVAAISSGGGNTYYADSVKGRFTISRDNAKNTVYLQMNSLKPEDSAVYYCAAVNPRSEYDYWGQGTQVTVSS	high polyreactivity
QVQLVESGGGLVQAGGSLRISCAASGLTFDYNAMGWYTQAPGKERELVAAITSGGSTKYADSVKGRFTISRDNSKNTVYLQMNSLKPEDTAVYYCARDRPGDYAGYDYWGQGTQVTVSS	low polyreactivity
QVQLVESGGGLVQAGGSLRLSCAASGSTFYSYAMGWYRQAPGKERELVAAISWRGGSTYYADSVKGRFTISRDNAKNTVYLQMNSLKPEDPEVYYCAAYRGDGYEYWGQGTQVTVSS	high polyreactivity
QVQLVESGGGLVQAGGSLRLSCAASGGIFGTYAMGWYRQAPGKEREFVAAITSGDSTYYADSVKGRFTISRDNAKNTVYLQMNSLKPEDTAVYYCAVGSTDRVSAQGSYFTYDYWGQGTQVTVSS	low polyreactivity
QVQLEESRGGLVQAGGSLRLSYPASGRTYVTYAMGWYRQAPGKERELVAAITSGGSTNYADSVKGRFTISRDNAKNTVYLQMNSLKPEDTAVYYCAKAYLWYKGIFDYWGQGTQVTVSS	low polyreactivity
QVQLVESGGGLVQAGGSLRLSCAASGSTFTSYDMGWYRQAPGKERELVAAITISSGGTYYADSVKGRFTISRDNAKITVYLQMNSLKPEDTAVYYCAADIFADASYDYWGQGTQVTVSS	low polyreactivity
QVQLVESGGGLVQAGGSLRLSCADSGRTFRRYKMGWYRQAPGKERELVATISSGGSTYADSVKGRFTISRDNAKNTVYLQMNSLKPEDTAVYYCAARYDVAWYSKRYSWGQGTQVTVSS	high polyreactivity
